Assay [1] concerns the target HLA-DP2 with human peptide HU24 (human).
For assay [2], the target named is HLA-DP2 with human peptide HU33 (human).
Assay [3] concerns the target HLA-DP2 with human peptide HU20 (human).
The target of assay [4] is HLA-DP2 with human peptide HU5 (human).
Assay [5] deals with HLA-DP2 with human peptide HU35 (human).
The target in assay [6] is HLA-DP2 with human peptide HU2 (human).
The target of assay [7] is HLA-DP2 with human peptide HU9 (human).
Assay [8] has as its target HLA-DP2 with human peptide HU31 (human).
The target in assay [9] is HLA-DP2 with human peptide HU22 (human).
The target of assay [10] is HLA-DP2 with human peptide HU17 (human).
For assay [11], the target named is HLA-DP2 with human peptide HU11 (human).
In assay [12] the target is HLA-DP2 with human peptide HU6 (human).
Assay [13] has as its target HLA-DP2 with human peptide HU21 (human).
Assay [14] concerns the target HLA-DP2 with human peptide HU25 (human).
Assay [15] addresses HLA-DP2 with human peptide HU29 (human).
For assay [16], the target named is HLA-DP2 with human peptide HU19 (human).
In assay [17] the target is HLA-DP2 with human peptide HU39 (human).
Assay [18] has as its target HLA-DP2 with human peptide HU38 (human).
Assay [19] deals with HLA-DP2 with human peptide HU3 (human).
Assay [20] deals with HLA-DP2 with human peptide HU15 (human).
Assay [21] addresses HLA-DP2 with human peptide HU1 (human).
For assay [22], the target named is HLA-DP2 with human peptide HU28 (human).
Assay [23] deals with HLA-DP2 with human peptide HU10 (human).
The target in assay [24] is HLA-DP2 with human peptide HU8 (human).
In assay [25] the target is HLA-DP2 with human peptide HU16 (human).
Assay [26] has as its target HLA-DP2 with human peptide HU7 (human).

As for AV9 TCR on the T cell hybridoma AV9, the IL-2 secretion of AV9 hybridoma, 0.5 µg/ml peptide, 75 µM BeSO4 in [1] turned out to be 4.6 pg/mL; in assay [2] it was 954 pg/mL; in assay [3] it was 4.6 pg/mL; in assay [4] it was 4.6 pg/mL; in assay [5], 1040 pg/mL; in [6] it was 966 pg/mL. For the same substance, the IL-2 secretion of AV9 hybridoma, 0.5 µg/ml peptide, 75 µM BeSO4 in assay [7] was found to be 48.6 pg/mL; in assay [8] it was 1040 pg/mL; in assay [9] it was 4.1 pg/mL; in assay [10], 16.3 pg/mL; in assay [11] it was 5.6 pg/mL; in assay [12] it was 4.1 pg/mL. Also, the IL-2 secretion of AV9 hybridoma, 0.5 µg/ml peptide, 75 µM BeSO4 was 48.8 pg/mL in assay [13]; 847 pg/mL in [14]; 4.6 pg/mL in assay [15]; 4.6 pg/mL in [16]; 68.7 pg/mL in assay [17]; 5.1 pg/mL in assay [18]. Besides, the IL-2 secretion of AV9 hybridoma, 0.5 µg/ml peptide, 75 µM BeSO4 came to 75.1 pg/mL in assay [19], 49.3 pg/mL in assay [20], 1120 pg/mL in assay [21] and 4.6 pg/mL in assay [22].

Consider AV22 TCR on the T cell hybridoma AV22, for which the IL-2 secretion of AV22 hybridoma, 0.5 µg/ml peptide, 75 µM BeSO4 was determined as 5.1 pg/mL in assay [23]; 4.6 pg/mL in assay [3]; 4.1 pg/mL in assay [4]; 947 pg/mL in [5]; 716 pg/mL in [6]; 21.7 pg/mL in assay [7]. Moreover, the IL-2 secretion of AV22 hybridoma, 0.5 µg/ml peptide, 75 µM BeSO4 in assay [24] came out at 4.6 pg/mL; in [8], 973 pg/mL; in assay [25], 4.6 pg/mL; in assay [9], 5.1 pg/mL; in assay [10] it was 15.6 pg/mL; in assay [13], 17.4 pg/mL. Also, the IL-2 secretion of AV22 hybridoma, 0.5 µg/ml peptide, 75 µM BeSO4 in [14] came to 622 pg/mL; in [16], 4.1 pg/mL; in assay [17] it was 22.4 pg/mL; in assay [18], 5.6 pg/mL; in [26], 4.1 pg/mL; in assay [19], 29.3 pg/mL. This substance had an IL-2 secretion of AV22 hybridoma, 0.5 µg/ml peptide, 75 µM BeSO4 in assay [21] of 997 pg/mL.

Values taken from article PMC3698527.
